Experimental data published in paper PMC2597023 (Journal of cellular biochemistry, 2008).

Biological target: full-length human IGFN1 with an N-terminal c-myc tag (human, UniProt Q86VF2-2 1-868)
Experiment: co-IP

fold of eEF1A1 immunoprecipitated against cells with the empty pCMV-myc vector: ~4 fold
B1: endogenous eEF1A1 of mouse C2C12 myoblasts (natural protein, mouse (endogenous in C2C12), UniProt P10126 1-462, looked up)
chain: MGKEKTHINIVVIGHVDSGKSTTTGHLIYKCGGIDKRTIEKFEKEAAEMGKGSFKYAWVLDKLKAERERGITIDISLWKFETSKYYVTIIDAPGHRDFIKNMITGTSQADCAVLIVAAGVGEFEAGISKNGQTREHALLAYTLGVKQLIVGVNKMDSTEPPYSQKRYEEIVKEVSTYIKKIGYNPDTVAFVPISGWNGDNMLEPSANMPWFKGWKVTRKDGSASGTTLLEALDCILPPTRPTDKPLRLPLQDVYKIGGIGTVPVGRVETGVLKPGMVVTFAPVNVTTEVKSVEMHHEALSEALPGDNVGFNVKNVSVKDVRRGNVAGDSKNDPPMEAAGFTAQVIILNHPGQISAGYAPVLDCHTAHIACKFAELKEKIDRRSGKKLEDGPKFLKSGDAAIVDMVPGKPMCVESFSDYPPLGRFAVRDMRQTVAVGVIKAVDKKAAGAGKVTKSAQKAQKAK
